Experimental data reported in PMC2884949, “The outer membrane secretin PilQ from Neisseria meningitidis binds DNA”.

T1: PilQ218-478 (Neisseria meningitidis M1080, UniProt Q9JVW4 218-478)
T1 sequence: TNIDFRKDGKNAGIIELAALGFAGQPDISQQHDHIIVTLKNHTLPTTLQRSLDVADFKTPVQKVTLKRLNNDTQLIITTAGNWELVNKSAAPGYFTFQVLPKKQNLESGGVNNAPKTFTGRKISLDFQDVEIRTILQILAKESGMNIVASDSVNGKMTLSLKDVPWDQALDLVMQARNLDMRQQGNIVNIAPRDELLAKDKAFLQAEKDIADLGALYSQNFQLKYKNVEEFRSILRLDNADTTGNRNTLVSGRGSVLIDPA

T2: PilQ25-132 (Neisseria meningitidis M1080, UniProt Q9JVW4 25-132)
T2 sequence: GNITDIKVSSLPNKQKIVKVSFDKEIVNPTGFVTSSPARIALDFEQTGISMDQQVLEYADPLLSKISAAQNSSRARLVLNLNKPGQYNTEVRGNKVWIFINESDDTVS

T3: PilQ25-354 (Neisseria meningitidis M1080, UniProt Q9JVW4 25-354)
T3 sequence: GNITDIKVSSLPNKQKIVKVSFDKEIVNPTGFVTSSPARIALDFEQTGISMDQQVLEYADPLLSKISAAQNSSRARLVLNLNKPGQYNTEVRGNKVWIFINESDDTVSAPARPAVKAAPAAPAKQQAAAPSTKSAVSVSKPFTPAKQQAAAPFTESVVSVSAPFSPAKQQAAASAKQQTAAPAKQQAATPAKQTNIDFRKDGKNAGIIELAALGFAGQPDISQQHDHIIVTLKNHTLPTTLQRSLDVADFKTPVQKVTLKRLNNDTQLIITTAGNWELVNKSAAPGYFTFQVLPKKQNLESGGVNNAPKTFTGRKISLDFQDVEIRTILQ

T4: PilQ352-761 (Neisseria meningitidis M1080, UniProt Q9JVW4 352-761)
T4 sequence: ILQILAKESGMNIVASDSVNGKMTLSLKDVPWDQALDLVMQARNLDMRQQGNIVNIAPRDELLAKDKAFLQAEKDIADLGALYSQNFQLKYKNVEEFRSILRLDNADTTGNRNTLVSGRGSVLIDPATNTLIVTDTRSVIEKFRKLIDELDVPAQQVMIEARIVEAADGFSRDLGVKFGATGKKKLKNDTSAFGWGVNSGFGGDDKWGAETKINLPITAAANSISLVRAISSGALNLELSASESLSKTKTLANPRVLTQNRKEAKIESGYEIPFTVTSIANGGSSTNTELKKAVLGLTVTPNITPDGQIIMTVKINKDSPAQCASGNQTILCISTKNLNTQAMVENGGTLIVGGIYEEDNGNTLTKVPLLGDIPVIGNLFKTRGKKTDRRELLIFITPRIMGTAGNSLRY

T5: PilQ complex (native secretin) (Neisseria meningitidis M1080, UniProt Q9JVW4 25-761)
T5 sequence: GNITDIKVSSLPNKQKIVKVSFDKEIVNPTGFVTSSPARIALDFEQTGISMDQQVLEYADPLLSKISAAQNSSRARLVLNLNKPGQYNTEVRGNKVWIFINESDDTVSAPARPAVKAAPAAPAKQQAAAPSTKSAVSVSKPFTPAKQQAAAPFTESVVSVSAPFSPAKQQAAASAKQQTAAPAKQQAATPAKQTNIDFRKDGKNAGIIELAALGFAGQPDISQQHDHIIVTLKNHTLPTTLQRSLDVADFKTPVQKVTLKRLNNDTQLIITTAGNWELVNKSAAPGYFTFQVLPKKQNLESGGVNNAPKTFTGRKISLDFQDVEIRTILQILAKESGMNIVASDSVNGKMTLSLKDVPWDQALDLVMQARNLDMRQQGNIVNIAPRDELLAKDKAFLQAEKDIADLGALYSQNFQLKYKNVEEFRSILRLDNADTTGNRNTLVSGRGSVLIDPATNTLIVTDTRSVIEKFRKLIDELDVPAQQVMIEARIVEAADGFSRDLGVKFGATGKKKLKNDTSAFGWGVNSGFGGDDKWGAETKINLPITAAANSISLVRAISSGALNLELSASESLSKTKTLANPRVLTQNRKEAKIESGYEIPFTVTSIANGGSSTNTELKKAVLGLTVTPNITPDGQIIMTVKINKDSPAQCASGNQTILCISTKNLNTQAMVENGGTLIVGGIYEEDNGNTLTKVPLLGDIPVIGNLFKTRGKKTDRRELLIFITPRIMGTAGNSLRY

B1: T1+T2 hybrid (dsDNA)
DNA 1: CAACAACAACAACAGCCGTCTGAACCAAATTCAGACGGCAACAACAACAACA
DNA 2: TGTTGTTGTTGTTGCCGTCTGAATTTGGTTCAGACGGCTGTTGTTGTTGTTG
B2: T3 (ssDNA)
DNA: CAACAACAACAACAGGCCTGTCATCCAAAATGACAGGCCAACAACAACAACA
B3: T8 (ssDNA)
DNA: GCCGATGCCGTCTGAATATCTTTCAGACGGCAGGCGGCGG
B4: T1 (ssDNA)
DNA: B1 DNA 1
B5: T4 (ssDNA)
DNA: TGTTGTTGTTGTTGGCCTGTCATTTTGGATGACAGGCCTGTTGTTGTTGTTG
B6: T3+T4 hybrid (dsDNA)
DNA 1: B2 DNA
DNA 2: B5 DNA
B7: T2 (ssDNA)
DNA: B1 DNA 2
B8: T7 (ssDNA)
DNA: CCGCCGCCTGCCGTCTGAAAGATATTCAGACGGCATCGGC
B9: T7+T8 hybrid (dsDNA)
DNA 1: B8 DNA
DNA 2: B3 DNA

The binders below were run against T1, PilQ218-478 (assay: EMSA; 5 mM Mg2+; EMSA: 50 mM MOPS pH 7.5, 1 mM EDTA, 1 mM DTT, 5 mM MgCl2, 5% glycerol, 200 ng protein in 10 ul, 20 min room temperature; 6% PAGE). Conditions: protein: recombinant; tags: His (N-terminal with pQE30); label: 5' 32P; blunt.
B1: no binding.

Same assay, conditions: protein: recombinant; tags: His (N-terminal with pQE30); label: 5' 32P; ss; 1 strand
B2: no binding.
B3: no binding.
B4: no binding.
B5: no binding.

These binders were tested against T2, PilQ25-132 in the same assay as above. Conditions: protein: recombinant; tags: His; label: 5' 32P; blunt.
B6: binds.

Same assay, conditions: protein: recombinant; tags: His; label: 5' 32P; ss; 1 strand
B7: no binding.
B2: no binding.
B8: no binding.
B4: no binding.
B5: no binding.

Each binder was assayed against T3, PilQ25-354 in the same assay as above. Conditions: protein: recombinant; tags: His (N-terminal with pQE30); label: 5' 32P; blunt.
B6: binds.
B9: binds.
B1: binds.

Same assay, conditions: protein: recombinant; tags: His (N-terminal with pQE30); label: 5' 32P; ss; 1 strand
B7: binds.
B2: binds.
B8: binds.
B3: binds.
B4: binds.
B5: binds.

Each binder was assayed against T4, PilQ352-761 in the same assay as above. Conditions: protein: recombinant; tags: His (C-terminal with pET28b); label: 5' 32P; blunt.
B6: no binding.
B9: no binding.
B1: no binding.

Same assay, conditions: protein: recombinant; tags: His (C-terminal with pET28b); label: 5' 32P; ss; 1 strand
B7: no binding.
B2: no binding.
B8: no binding.
B3: no binding.
B4: no binding.
B5: no binding.

The binders below were run against T5, PilQ complex (native secretin) (assay: Southwestern; whole-cell lysate, PilQ multimer band; EMSA: 50 mM MOPS pH 7.5, 1 mM EDTA, 1 mM DTT, 5 mM MgCl2, 5% glycerol, 200 ng protein in 10 ul, 20 min room temperature; 6% PAGE). Conditions: chain copies: 12, label: 5' 32P, ss, 1 strand.
B4: binds.
